{
  "source": "paper PMC9172071",
  "about": "“Peach fruit PpNAC1 activates PpFAD3-1 transcription to provide ω-3 fatty acids for the synthesis of short-chain flavor volatiles”",
  "binders": {"B1": {"name": "Mutant-Probe1 (dsDNA)", "DNA 1": "AACCCCGCAGCAGCGTGCACTTTACCTGGTG", "DNA 2": "CACCAGGTAAAGTGCACGCTGCTGCGGGGTT"}},
  "target": "GST-PpNAC1 (Prunus persica (peach), UniProt M5WG30 1-363)",
  "sequence (M5WG30 entry or part of it)": "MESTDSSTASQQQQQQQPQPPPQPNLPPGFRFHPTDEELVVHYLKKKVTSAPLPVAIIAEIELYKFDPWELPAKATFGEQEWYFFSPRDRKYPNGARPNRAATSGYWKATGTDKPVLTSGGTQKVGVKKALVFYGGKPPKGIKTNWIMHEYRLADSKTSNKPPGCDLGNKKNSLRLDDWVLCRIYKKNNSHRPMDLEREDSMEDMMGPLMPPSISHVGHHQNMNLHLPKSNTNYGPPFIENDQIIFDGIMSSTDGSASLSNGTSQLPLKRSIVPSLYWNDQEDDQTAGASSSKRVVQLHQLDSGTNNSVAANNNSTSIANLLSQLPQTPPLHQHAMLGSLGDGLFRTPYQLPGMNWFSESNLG",
  "assay": "EMSA; LightShift Chemiluminescent EMSA kit (Thermo Fisher); buffer, salt, pH and temperature not stated (refers to previous study)",
  "conditions": "protein: recombinant; tags: GST (N-terminal, pGEX-4T-1); chain copies: 2; blunt",
  "data": [
    {"binder": "B1", "values": [
      {"measurement": "binding result", "result": "no binding"}
    ]}
  ]
}
